Measurements reported in paper PMC4016182, “First Functional and Mutational Analysis of Group 3 N-Acetylneuraminate Lyases from Lactobacillus antri and Lactobacillus sakei 23K” (PLoS ONE, 2014).

T1: LaNAL (Limosilactobacillus antri, UniProt C8P490)
T1 construct: gene FC31_GL000711; N-terminal His-tag (pET-28a), E. coli Rosetta 2; nanA gene printed as 828 bp; homotetramer 140 kDa; EC 4.1.3.3
T1 sequence (C8P490 1-305): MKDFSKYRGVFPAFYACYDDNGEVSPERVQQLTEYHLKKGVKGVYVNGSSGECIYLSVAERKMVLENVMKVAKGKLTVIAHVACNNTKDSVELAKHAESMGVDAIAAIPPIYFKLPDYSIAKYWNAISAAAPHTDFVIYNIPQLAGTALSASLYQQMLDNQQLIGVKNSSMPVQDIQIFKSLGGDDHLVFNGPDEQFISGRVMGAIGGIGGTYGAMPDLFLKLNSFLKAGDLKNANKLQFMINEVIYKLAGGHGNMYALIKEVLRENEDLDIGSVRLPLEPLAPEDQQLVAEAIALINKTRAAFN

T2: LsNAL (Latilactobacillus sakei, UniProt Q38V37)
T2 construct: gene nanA; N-terminal His-tag (pET-28a), E. coli Rosetta 2; nanA gene 918 bp; homotetramer 140 kDa; EC 4.1.3.3
T2 sequence (Q38V37 1-305): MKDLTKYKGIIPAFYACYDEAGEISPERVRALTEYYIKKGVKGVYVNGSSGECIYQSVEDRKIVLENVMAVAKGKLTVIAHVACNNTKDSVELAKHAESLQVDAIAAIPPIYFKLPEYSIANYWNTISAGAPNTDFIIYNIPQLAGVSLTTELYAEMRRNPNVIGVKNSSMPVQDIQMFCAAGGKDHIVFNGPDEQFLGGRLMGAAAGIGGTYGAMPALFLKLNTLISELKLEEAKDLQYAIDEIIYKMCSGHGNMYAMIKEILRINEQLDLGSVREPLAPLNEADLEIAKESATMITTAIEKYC


How the values were obtained:
LaNAL = molecular target: T1, LaNAL; assay: NAD+-coupled ManNAc dehydrogenase assay, […] nm; format: biochemical
LsNAL [1] = molecular target: T2, LsNAL; assay: thermal shift, SYPRO Orange; format: binding; conditions: 5 mM sodium pyruvate; several pHs (4-9)
LsNAL [2] = molecular target: T2, LsNAL; assay: NAD+-coupled ManNAc dehydrogenase assay, […] nm; format: biochemical
[3] = molecular target: N-acetylneuraminate lyase from Lactobacillus antri (Lactobacillus antri) (UniProt C8P490); assay: SEC; gel filtration on Superdex200 10/300 GL in 50 mM phosphate buffer pH 7.0 with 0.15 M NaCl; native mass compared with the subunit mass by HPLC/MS/ESI and SDS-PAGE
[4] = molecular target: N-acetylneuraminate lyase from Lactobacillus sakei 23K (Lactobacillus sakei 23K) (UniProt Q38V37); assay: as above
[5] = substrate: CC(=O)C(=O)O; assay: Neu5Ac synthesis, HPLC-ELSD; format: biochemical, Limosilactobacillus antri; conditions: co-substrate ManNAc, 20 mM phosphate pH 7.0, 37 C
From the text: Neu5Ac synthesis, HPLC-ELSD on LaNAL

[6] = substrate: CC(=O)C(=O)O; assay: Neu5Ac synthesis, HPLC-ELSD; format: biochemical, Latilactobacillus sakei; conditions: co-substrate ManNAc, 20 mM phosphate pH 7.0, 37 C
From the text: Neu5Ac synthesis, HPLC-ELSD on LsNAL

Molecule	Km [5]	kcat [5]	kcat/Km [5]	also measured
CC(=O)C(=O)O [pyruvate]				Ki (LaNAL): 160 µM; Tm (LsNAL [1]): protective effect was more evident at basic pHs; Ki (LsNAL [2]): 400 µM
N-acetylneuraminate lyase from Lactobacillus antri (from UniProt C8P490 1-305) (enzyme)				stoichiometry N [3]: 4
N-acetylneuraminate lyase from Lactobacillus sakei 23K (from UniProt Q38V37 1-305) (enzyme)				stoichiometry N [4]: 4
LaNAL (Limosilactobacillus antri DSM 16041; G210S/Y213G) (protein, N-terminal His-tag (pET-28a), E. coli Rosetta 2; nanA gene printed as 828 bp; homotetramer 140 kDa; EC 4.1.3.3) MKDFSKYRGVFPAFYACYDDNGEVSPERVQQLTEYHLKKGVKGVYVNGSSGECIYLSVAERKMVLENVMKVAKGKLTVIAHVACNNTKDSVELAKHAESMGVDAIAAIPPIYFKLPDYSIAKYWNAISAAAPHTDFVIYNIPQLAGTALSASLYQQMLDNQQLIGVKNSSMPVQDIQIFKSLGGDDHLVFNGPDEQFISGRVMGAIGGISGTGGAMPDLFLKLNSFLKAGDLKNANKLQFMINEVIYKLAGGHGNMYALIKEVLRENEDLDIGSVRLPLEPLAPEDQQLVAEAIALINKTRAAFN	4300 ± 2000 µM	3 ± 0.3 s⁻¹	710 M⁻¹ s⁻¹	
LaNAL (Limosilactobacillus antri DSM 16041; P193Y) (protein, N-terminal His-tag (pET-28a), E. coli Rosetta 2; nanA gene printed as 828 bp; homotetramer 140 kDa; EC 4.1.3.3) MKDFSKYRGVFPAFYACYDDNGEVSPERVQQLTEYHLKKGVKGVYVNGSSGECIYLSVAERKMVLENVMKVAKGKLTVIAHVACNNTKDSVELAKHAESMGVDAIAAIPPIYFKLPDYSIAKYWNAISAAAPHTDFVIYNIPQLAGTALSASLYQQMLDNQQLIGVKNSSMPVQDIQIFKSLGGDDHLVFNGYDEQFISGRVMGAIGGIGGTYGAMPDLFLKLNSFLKAGDLKNANKLQFMINEVIYKLAGGHGNMYALIKEVLRENEDLDIGSVRLPLEPLAPEDQQLVAEAIALINKTRAAFN	500 ± 10 µM	0.99 ± 0.03 s⁻¹	1980 M⁻¹ s⁻¹	
LaNAL (Limosilactobacillus antri DSM 16041) (protein, N-terminal His-tag (pET-28a), E. coli Rosetta 2; nanA gene printed as 828 bp; homotetramer 140 kDa; EC 4.1.3.3) MKDFSKYRGVFPAFYACYDDNGEVSPERVQQLTEYHLKKGVKGVYVNGSSGECIYLSVAERKMVLENVMKVAKGKLTVIAHVACNNTKDSVELAKHAESMGVDAIAAIPPIYFKLPDYSIAKYWNAISAAAPHTDFVIYNIPQLAGTALSASLYQQMLDNQQLIGVKNSSMPVQDIQIFKSLGGDDHLVFNGPDEQFISGRVMGAIGGIGGTYGAMPDLFLKLNSFLKAGDLKNANKLQFMINEVIYKLAGGHGNMYALIKEVLRENEDLDIGSVRLPLEPLAPEDQQLVAEAIALINKTRAAFN	1100 ± 200 µM	5.6 ± 0.1 s⁻¹	5100 M⁻¹ s⁻¹	
LsNAL (Latilactobacillus sakei subsp. sakei 23K) (protein, N-terminal His-tag (pET-28a), E. coli Rosetta 2; nanA gene 918 bp; homotetramer 140 kDa; EC 4.1.3.3) MKDLTKYKGIIPAFYACYDEAGEISPERVRALTEYYIKKGVKGVYVNGSSGECIYQSVEDRKIVLENVMAVAKGKLTVIAHVACNNTKDSVELAKHAESLQVDAIAAIPPIYFKLPEYSIANYWNTISAGAPNTDFIIYNIPQLAGVSLTTELYAEMRRNPNVIGVKNSSMPVQDIQMFCAAGGKDHIVFNGPDEQFLGGRLMGAAAGIGGTYGAMPALFLKLNTLISELKLEEAKDLQYAIDEIIYKMCSGHGNMYAMIKEILRINEQLDLGSVREPLAPLNEADLEIAKESATMITTAIEKYC				Km [6]: 12500 ± 200 µM; kcat [6]: 3.9 ± 0.1 s⁻¹; kcat/Km [6]: 310 M⁻¹ s⁻¹
